Test results as given in doi:10.1101/2020.12.03.409995 (2020).

Experiments:
[1] = biological target: T1, Biotin-Aβ42 oligomers (human, UniProt P05067 672-713, biotin (position not given)); test: BLI; koff1 (first site)
[2] = biological target: T1, Biotin-Aβ42 oligomers; test: BLI; koff2 (second site)

koff [1]: 0.435 s⁻¹ | koff [2]: 0.00772 s⁻¹
B1: wild-type sTREM2 (TREM2 ectodomain, residues 19-143, His-tagged) (domain or fragment)
chain: HNTTVFQGVAGQSLQVSCPYDSMKHWGRRKAWCRQLGEKGPCQRVVSTHNLWLLSFLRRWNGSTAITDDTLGGTLTITLRNLQPHDAGLYQCQSLHGSEADTLRKVLVEVLADPLDHRDAGDLWF
